The text below walks through data of article PMC3587573.

Assay [1] concerns the target BvPIP1;1 (Beta vulgaris).
For assay [2], the target named is BvPIP1;1 (Beta vulgaris). The source holds these as a separate data set.

Take BvPIP2;1 N64H/E65Q (natural protein): the oocyte membrane Pf on co-injection of BvPIP1;1 and BvPIP2;1 N64H/E65Q cRNA, against the mutant alone with BvPIP1;1 (Beta vulgaris) [1] amounted to 4.3 fold.
For BvPIP2;1 (natural protein), the maximal inhibition of Pf by cytosolic acidification in oocytes co-injected with BvPIP2;1 and BvPIP1;1 cRNA (1:1 mass ratio); not significantly different from BvPIP2;1 alone with BvPIP1;1 (Beta vulgaris) [2] turned out to be 87%.
With BvPIP2;1 N64I/E65Q (natural protein), in the assay with BvPIP1;1 (Beta vulgaris) [1], the oocyte membrane Pf on co-injection of BvPIP1;1 and BvPIP2;1 N64I/E65Q cRNA, against the mutant alone came out at 4.1 fold.
